B1: H4H25630P (antibody, V domains shown)
VH: QVQLVQSGAEVKRPGASVKVSCKASDYTFTDYGISWVRQAPGQGLEWMGWFNTYNGNTNYAQKFQGRITMTTDTSTSTAYMELRSLRSDDTAIYYCARDWGLHYFENWGQGTLVTVSS
VL: EIVLTQSPGTLSLSPGERATLSCRASQSVRNSYLAWYQQKPGQAPRLLIYGASSRDTGIPDRFSGSGSGTDFTLTISRLEPEDFAVYYCQQYGRSPWTFGQGTKVEIK
B2: H2aM25709N (antibody, V domains shown)
VH: EVQLVESGGGLVQPGGSLRLSCAASGFTVSSNYMSWVRQAPGKGLEWVSVIYSGGRTNYGDSVKGRFTISRDNSKNTLYLQMNSLRAEDTAVYYCARENYDFWSGDPYGWDVWGQGTTVTVSS
VL: DIQMTQSPSSLSASVGDRVTITCRASQDISNYLAWFQQKPGKAPKSLIYGASSLQRGVPSKFSGSGSGTDFTLTISSLQPEDFATYYCQQYNSYPYTFGQGTKLEIK
B3: H2aM25711N (antibody, V domains shown)
VH: B2 VH
VL: B2 VL
B4: H4H25626P (antibody, V domains shown)
VH: QVQLVESGGGVVQPGRSLRLSCAASGFTFSSYGMHWVRQAPGKGLEWVALIWYDGSDKHYVDSMKGRFTISRDNSKNTLYLQMNSLRADDTAVYYCARQAYYFYYGMDVWGQGTTVTVSS
VL: not shown
B5: H4H25633P (antibody, V domains shown)
VH: EVQLVESGGGLVQPGRSLRLSCAASGFTFDDYAIHWVRQAPGKGLEWVSGISWNSGYLGYADSVKGRFTISRDNAKNSLYLQMNSLRAEDTAFYYCAKDVAWGSVRHVFEIWGQGTMVTVSS
VL: EIVLTQSPGTLSLSPGERATLSCRASQTITGNQLAWYQQKPGQAPRLLIYFTSSRATGIPDRFSGSGSGTDFSLTISRLEPEDFAVYFCQQFGYSPWTFGQGTKVEIK

Key:
[1] = target: T1, ZIKV prM/E polyprotein on virus-like particles (VLPs) from HEK293T/17 cells (Zika virus, UniProt A0A024B7W1 123-795); test: MSD ECL, VLPs on plate
T1 construct: also called ZIKV prM/E VLPs; Zika prM/E VLPs

[2] = target: T2, ZIKV (prM80E) with a C-terminal myc-myc-hexahistidine tag (Zika virus, UniProt A0A024B7W1 104-694); test: SPR, mAb captured, 25C
T2 construct: also called ZIKV (prM80E)-mmH; ZIKV-mmH

[3] = target: T2, ZIKV (prM80E) with a C-terminal …; test: SPR, mAb captured, 37C
[4] = target: ZIKV envelope glycoprotein (E) of strain MR766 (Uganda 1947) (Zika virus, UniProt Q32ZE1 291-790); test: cell-based or functional assay
[5] = target: ZIKV envelope glycoprotein (E) of strain PRVABC59 (Puerto Rico 2015) (Zika virus); test: cell-based or functional assay
[6] = target: ZIKV envelope glycoprotein (E) of strain FLR (Colombia 2015) (Zika virus); test: cell-based or functional assay

Binder	EC50 [1] [nM]	Kd [2] [nM]	koff [2] [s⁻¹]	kon [2] [M⁻¹ s⁻¹]	t½ [2] [min]	Kd [3] [nM]	koff [3] [s⁻¹]	kon [3] [M⁻¹ s⁻¹]	t½ [3] [min]	neutralization IC50, Vero cells [4] [nM]	neutralization IC50, Vero cells [5] [nM]	neutralization IC50, Vero cells [6] [nM]
B1	0.217	0.21	0.00035	1.67e+06	33	1.16	0.00229	1.98e+06	5.1	0.147	0.539	0.283
B2	0.362	–	–	–	–	–	–	–	–	–	–	–
B3	0.468	–	–	–	–	–	–	–	–	–	–	–
B4	1.59	6.17	0.000905	147000	12.8	6.18	0.00187	303000	6.2	0.159	1.17	1.09
B5	0.4	1.95	0.000802	411000	14.4	7.39	0.00501	678000	2.3	0.102	0.652	0.44

From patent US20180016324A1 (Regeneron, published 2018)
